The assay deals with T1, MBP-p120-catenin(311-747), middle portion of p120-catenin containing armadillo domains 1-8 fused to maltose … (UniProt P30999 311-747).
T1 construct: p120-catenin, middle portion containing armadillo domains 1-8, aa 311-747; source: recombinant protein (source in Supplemental Methods)
T1 sequence (looked up): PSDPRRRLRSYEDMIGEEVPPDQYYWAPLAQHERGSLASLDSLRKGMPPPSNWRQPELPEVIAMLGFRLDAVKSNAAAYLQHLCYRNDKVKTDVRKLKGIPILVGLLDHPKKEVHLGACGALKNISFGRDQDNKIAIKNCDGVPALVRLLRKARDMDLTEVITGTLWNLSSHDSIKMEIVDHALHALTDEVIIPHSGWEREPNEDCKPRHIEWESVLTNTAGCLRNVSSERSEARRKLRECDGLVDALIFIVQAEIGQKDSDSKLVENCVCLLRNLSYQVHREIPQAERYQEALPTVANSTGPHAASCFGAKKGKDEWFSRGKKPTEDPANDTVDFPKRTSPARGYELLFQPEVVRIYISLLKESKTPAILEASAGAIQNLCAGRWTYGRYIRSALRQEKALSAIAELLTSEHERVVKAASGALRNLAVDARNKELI
In words: ITC; VP-ITC, 37°C, PBS pH 7.4; GST-Ncad ligands (80-100 μM) titrated into 10 μM MBP-p120-catenin(311-747) in the sample chamber; control titrations subtracted; 1-site binding model; average of 3 replicates; number of sites fixed to 1 for the SE ligand. The following applies: both partners purified.

B1: GST-Ncad(746-906)-WT, recombinant GST-tagged cytoplasmic domain of N-cadherin (domain or fragment, mouse, UniProt P15116 746-906, looked up)
chain: MKRRDKERQAKQLLIDPEDDVRDNILKYDEEGGGEEDQDYDLSQLQQPDTVEPDAIKPVGIRRLDERPIHAEPQYPVRSAAPHPGDIGDFINEGLKAADNDPTAPPYDSLLVFDYEGSGSTAGSLSSLNSSSSGGDQDYDYLNDWGPRFKKLADMYGGGDD
notes: source: recombinant protein (source in Supplemental Methods)
The term Kd denotes the equilibrium constant for the complex coming apart. Read a high Kd as a looser complex. Molecule B1 came in with a Kd of 1.25 µM.

B2: GST-Ncad(746-906)-SE, phosphomimic Ser-788-Glu GST-tagged cytoplasmic domain of N-cadherin (domain or fragment, mouse, UniProt P15116 746-906, looked up)
chain: MKRRDKERQAKQLLIDPEDDVRDNILKYDEEGGGEEDQDYDLEQLQQPDTVEPDAIKPVGIRRLDERPIHAEPQYPVRSAAPHPGDIGDFINEGLKAADNDPTAPPYDSLLVFDYEGSGSTAGSLSSLNSSSSGGDQDYDYLNDWGPRFKKLADMYGGGDD
notes: as for B1
In turn, B2 displayed a Kd of 197 µM.

These data come from publication PMC10967385, “Essential role of obscurin kinase-1 in cardiomyocyte coupling via N-cadherin phosphorylation” (JCI Insight, 2024).
